# T1: His6-Vps4 (S. cerevisiae, UniProt P52917 1-437)
# T1 sequence: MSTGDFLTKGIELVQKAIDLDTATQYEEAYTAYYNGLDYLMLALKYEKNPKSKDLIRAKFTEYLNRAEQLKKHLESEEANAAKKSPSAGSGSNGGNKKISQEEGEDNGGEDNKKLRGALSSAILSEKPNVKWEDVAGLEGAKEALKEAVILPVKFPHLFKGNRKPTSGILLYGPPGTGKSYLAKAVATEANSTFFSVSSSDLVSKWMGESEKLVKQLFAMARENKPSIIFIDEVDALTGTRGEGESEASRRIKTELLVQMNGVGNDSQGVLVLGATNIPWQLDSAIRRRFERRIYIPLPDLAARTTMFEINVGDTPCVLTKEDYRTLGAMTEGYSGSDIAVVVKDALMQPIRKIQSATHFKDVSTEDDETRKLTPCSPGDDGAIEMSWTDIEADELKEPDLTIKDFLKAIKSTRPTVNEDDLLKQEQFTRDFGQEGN
# B1: GST-Bro1V(370-709) (domain or fragment)
# chain: DVYEKESIYSEEKATLLRKQVEETETANLEYSSFIEFTNLPRLLSDLEKQFSDGNIFSNTDTQGQLMRDQIQTWCKFIQTNEFRDIEEQMNKIVFKRKQILEILSALPNDQKENVTKLKSSLVAASNSDEKLFACVKPHIVEINLLNDNGKIWKKFDEFNRNTPPQPSLLDIDDTKNDKILELLKQVKGHAEDLRTLKEERSRNLSELRDEINNDDITKLLIINKGKSDVELKDLFEVELEKFEPLSTRIEATIYKQSSMIDDIKAKLDEIFHLSNFKDKSSGEEKFLEDRKNFFDKLQEAVKSFSIFASDLPKGIEFYDSLFNMSRDLAERVRVAKQTE
# B2: Bro1 V domain (Bro1V; aa 370-709) (domain or fragment)
# chain: DVYEKESIYSEEKATLLRKQVEETETANLEYSSFIEFTNLPRLLSDLEKQFSDGNIFSNTDTQGQLMRDQIQTWCKFIQTNEFRDIEEQMNKIVFKRKQILEILSALPNDQKENVTKLKSSLVAASNSDEKLFACVKPHIVEINLLNDNGKIWKKFDEFNRNTPPQPSLLDIDDTKNDKILELLKQVKGHAEDLRTLKEERSRNLSELRDEINNDDITKLLIINKGKSDVELKDLFEVELEKFEPLSTRIEATIYKQSSMIDDIKAKLDEIFHLSNFKDKSSGEEKFLEDRKNFFDKLQEAVKSFSIFASDLPKGIEFYDSLFNMSRDLAERVRVAKQTE
# B3: Bro1V^M4 (V505A, H508A, I512A) (domain or fragment)
# chain: DVYEKESIYSEEKATLLRKQVEETETANLEYSSFIEFTNLPRLLSDLEKQFSDGNIFSNTDTQGQLMRDQIQTWCKFIQTNEFRDIEEQMNKIVFKRKQILEILSALPNDQKENVTKLKSSLVAASNSDEKLFACAKPAIVEANLLNDNGKIWKKFDEFNRNTPPQPSLLDIDDTKNDKILELLKQVKGHAEDLRTLKEERSRNLSELRDEINNDDITKLLIINKGKSDVELKDLFEVELEKFEPLSTRIEATIYKQSSMIDDIKAKLDEIFHLSNFKDKSSGEEKFLEDRKNFFDKLQEAVKSFSIFASDLPKGIEFYDSLFNMSRDLAERVRVAKQTE
# B4: Bro1V^M9 (T587D) (domain or fragment)
# chain: DVYEKESIYSEEKATLLRKQVEETETANLEYSSFIEFTNLPRLLSDLEKQFSDGNIFSNTDTQGQLMRDQIQTWCKFIQTNEFRDIEEQMNKIVFKRKQILEILSALPNDQKENVTKLKSSLVAASNSDEKLFACVKPHIVEINLLNDNGKIWKKFDEFNRNTPPQPSLLDIDDTKNDKILELLKQVKGHAEDLRTLKEERSRNLSELRDEINNDDIDKLLIINKGKSDVELKDLFEVELEKFEPLSTRIEATIYKQSSMIDDIKAKLDEIFHLSNFKDKSSGEEKFLEDRKNFFDKLQEAVKSFSIFASDLPKGIEFYDSLFNMSRDLAERVRVAKQTE
# B5: Bro1V^M10 (K481D) (domain or fragment)
# chain: DVYEKESIYSEEKATLLRKQVEETETANLEYSSFIEFTNLPRLLSDLEKQFSDGNIFSNTDTQGQLMRDQIQTWCKFIQTNEFRDIEEQMNKIVFKRKQILEILSALPNDQDENVTKLKSSLVAASNSDEKLFACVKPHIVEINLLNDNGKIWKKFDEFNRNTPPQPSLLDIDDTKNDKILELLKQVKGHAEDLRTLKEERSRNLSELRDEINNDDITKLLIINKGKSDVELKDLFEVELEKFEPLSTRIEATIYKQSSMIDDIKAKLDEIFHLSNFKDKSSGEEKFLEDRKNFFDKLQEAVKSFSIFASDLPKGIEFYDSLFNMSRDLAERVRVAKQTE
# B6: Bro1V^M8 (E686A, L691D) (domain or fragment, S. cerevisiae, UniProt P48582 370-709, looked up)
# chain: DVYEKESIYSEEKATLLRKQVEETETANLEYSSFIEFTNLPRLLSDLEKQFSDGNIFSNTDTQGQLMRDQIQTWCKFIQTNEFRDIEEQMNKIVFKRKQILEILSALPNDQKENVTKLKSSLVAASNSDEKLFACVKPHIVEINLLNDNGKIWKKFDEFNRNTPPQPSLLDIDDTKNDKILELLKQVKGHAEDLRTLKEERSRNLSELRDEINNDDITKLLIINKGKSDVELKDLFEVELEKFEPLSTRIEATIYKQSSMIDDIKAKLDEIFHLSNFKDKSSGEEKFLEDRKNFFDKLQEAVKSFSIFASDLPKGIAFYDSDFNMSRDLAERVRVAKQTE
# Biological target: T1, His6-Vps4
# Test: pull-down
row,Binder,binding result
1,B1,binds
2,B2,binds
3,B3,binds
4,B4,binds
5,B5,binds

# Biological target: T1, His6-Vps4
# Test: pull-down
# Remark: another data set of the same source
row,Binder,binding result
1,B6,binds
